The values below come from US20050043264.

In series [1] the target is Drosophila Cdk5 (endogenous, BG2-c2 neuronal cells), P48609.
For series [2], the target named is T1, Drosophila Ena (overexpressed in BG2-c2 cells), Q8T4F7.
T1 chain: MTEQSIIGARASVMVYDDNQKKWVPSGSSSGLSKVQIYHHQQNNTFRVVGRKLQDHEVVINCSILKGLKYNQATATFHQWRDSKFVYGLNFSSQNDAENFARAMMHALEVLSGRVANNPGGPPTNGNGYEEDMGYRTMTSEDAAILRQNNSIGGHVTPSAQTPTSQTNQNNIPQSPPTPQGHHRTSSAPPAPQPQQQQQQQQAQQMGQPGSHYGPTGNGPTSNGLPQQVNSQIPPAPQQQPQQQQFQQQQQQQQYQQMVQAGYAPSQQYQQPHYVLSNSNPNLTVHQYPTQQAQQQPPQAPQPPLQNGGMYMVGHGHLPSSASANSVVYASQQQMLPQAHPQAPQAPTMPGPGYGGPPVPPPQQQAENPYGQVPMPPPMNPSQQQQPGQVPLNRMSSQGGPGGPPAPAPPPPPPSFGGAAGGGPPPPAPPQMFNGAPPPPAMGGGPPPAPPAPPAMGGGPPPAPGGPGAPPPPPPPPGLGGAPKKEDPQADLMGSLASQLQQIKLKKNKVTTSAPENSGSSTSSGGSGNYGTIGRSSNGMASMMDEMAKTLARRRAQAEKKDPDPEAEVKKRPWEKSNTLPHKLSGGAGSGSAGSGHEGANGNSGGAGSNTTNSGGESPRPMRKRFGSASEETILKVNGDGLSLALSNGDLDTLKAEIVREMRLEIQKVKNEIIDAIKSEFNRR

Drosophila Cdk5 (endogenous, BG2-c2 neuronal cells), P48609, sequence (P48609 whole entry): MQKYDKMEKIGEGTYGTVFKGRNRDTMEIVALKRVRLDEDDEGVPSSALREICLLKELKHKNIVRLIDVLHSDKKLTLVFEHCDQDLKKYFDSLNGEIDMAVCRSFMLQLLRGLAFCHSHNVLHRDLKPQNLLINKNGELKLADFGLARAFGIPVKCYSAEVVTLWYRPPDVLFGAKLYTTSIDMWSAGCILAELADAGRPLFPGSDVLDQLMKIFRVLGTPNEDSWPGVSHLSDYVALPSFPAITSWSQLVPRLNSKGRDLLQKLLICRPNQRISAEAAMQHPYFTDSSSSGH

B1: Drosophila Abl kinase (endogenous, BG2-c2 neuronal cells) (protein)
chain: MGAQQGKDRGAHSGGGGSGAPVSCIGLSSSPVASVSPHCISSSSGVSSAPLGGGSTLRGSRIKSSSSGVASGSGSGGGGGGSGSGLSQRSGGHKDARCNPTVGLNIFTEHNEALLQSRPLPHIPAGSTAASLLADAAELQQHQQDSGGLGLQGSSLGGGHSSTTSVFESAHRWTSKENLLAPGPEEDDPQLFVALYDFQAGGENQLSLKKGEQVRILSYNKSGEWCEAHSDSGNVGWVPSNYVTPLNSLEKHSWYHGPISRNAAEYLLSSGINGSFLVRESESSPGQRSISLRYEGRVYHYRISEDPDGKVFVTQEAKFNTLAELVHHHSVPHEGHGLITPLLYPAPKQNKPTVFPLSPEPDEWEICRTDIMMKHKLGGGQYGEVYEAVWKRYGNTVAVKTLKEDTMALKDFLEEAAIMKEMKHPNLVQLIGVCTREPPFYIITEFMSHGNLLDFLRSAGRETLDAVALLYMATQIASGMSYLESRNYIHRDLAARNCLVGDNKLVKVADFGLARLMRDDTYTAHAGAKFPIKWTAPEGLAYNKFSTKSDVWAFGVLLWEIATYGMSPYPAIDLTDVYHKLDKGYRMERPPGCPPEVYDLMRQCWQWDATDRPTFKSIHHALEHMFQESSITEAVEKQLNANATSASSSAPSTSGVATGGGATTTTAASGCASSSSATASLSLTPQMVKKGLPGGQALTPNAHHNDPHQQQASTPMSETGSTSTKLSTFSSQGKGNVQMRRTTNKQGKQAPAPPKRTSLLSSSRDSTYREEDPANARCNFIDDLSTNGLARDINSLTQRYDSETDPAADPDTDATGDSLEQSLSQVIAAPVTNKMQHSLHSGGGGGGIGPRSSQQHSSFKRPTGTPVMGNRGLETRQSKRSQLHSQAPGPGPPSTQPHHGNNGVVTSAHPITVGALDVMNVKQVVNRYGTLPKGARIGAYLDSLEDSSEAAPALPATAPSLPPANGHATPPAARLNPKASPIPPQQMIRSNSSGGVTMQNNAAASLNKLQRHRTTTEGTMMTFSSFRAGGSSSSPKRSASGVASGVQPALANLEFPPPPLDLPPPPEEFEGGPPPPPPAPESAVQAIQQHLHAQLPNNGNISNGNGTNNNDSSHNDVSNIAPSVEEASSRFGVSLRKREPSTDSCSSLGSPPEDLKEKLITEIKAAGKDTAPASHLANGSGIAVVDPVSLLVTELAESMNLPKPPPQQQQKLTNGNSTGSGFKAQLKKVEPKKMSAPMPKAEPANTIIDFKAHLRRVDKEKEPATPAPAPATVAVANNANCNTTGTLNRKEDGSKKFSQAMQKTEIKIDVTNSNVEADAGAAGEGDLGKRRSTGSINSLKKLWEQQPPAPDYATSTILQQQPSVVNGGGTPNAQLSPKYGMKSGAINTVGTLPAKLGNKQPPAAPPPPPPNCTTSNSSTTSISTSSRDCTSRQQASSTIKTSHSTQLFTDDEEQSHTEGLGSGGQGSADMTQSLYEQKPQIQQKPAVPHKPTKLTIYATPIAKLTEPASSASSTQISRESILELVGLLEGSLKHPVNAIAGSQWLQLSDKLNILHNSCVIFAENGAMPPHSKFQFRELVTRVEAQSQHLRSAGSKNVQDNERLVAEVGQSLRQISNALNR
As for B1, the “Cdk5-Y15 phosphorylation (Cdk5-pY15) and Cdk5 kinase activity after STI571 or dsRNA-abl” value in series [1] is “both the Cdk5-pY15 and kinase activity were diminished”. In addition, in series [2], the “tyrosine-phosphorylation level of Ena” value is “Ena phosphorylation levels were elevated by Aβ42 but reduced by STI571”.
